Among the data in publication doi:10.1101/2020.05.22.111047 are Kd values, retold here.

For this data set, the target named is Carbonic anhydrase 1 (CA1) (human, UniProt P00915 2-261). Nature of the data set: G-FET.
Chain of Carbonic anhydrase 1 (CA1) (P00915 2-261): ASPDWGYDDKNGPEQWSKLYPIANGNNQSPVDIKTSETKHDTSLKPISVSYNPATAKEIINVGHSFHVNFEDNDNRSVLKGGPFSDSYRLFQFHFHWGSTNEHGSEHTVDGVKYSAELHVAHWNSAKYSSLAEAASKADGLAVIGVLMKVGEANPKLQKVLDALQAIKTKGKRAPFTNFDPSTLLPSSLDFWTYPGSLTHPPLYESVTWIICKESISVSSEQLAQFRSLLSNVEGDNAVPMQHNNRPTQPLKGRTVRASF

For CAGGCGCAGUAUCACUUUGUGAUCAUUAGUGGGUUCCGUG (ssRNA, 5' amine, coupled to graphene via PBASE linker) [CA1 RNA aptamer], the Kd (in general, a measure of binding affinity in units of concentration) amounted to 2.27 ng/mL.
